Measured values reported in publication doi:10.1101/2023.10.06.561239 (bioRxiv, 2023).

Molecular target: T1, human DMC1, untagged, purified recombinant (human, UniProt Q14565 1-340)
T1 sequence (looked up): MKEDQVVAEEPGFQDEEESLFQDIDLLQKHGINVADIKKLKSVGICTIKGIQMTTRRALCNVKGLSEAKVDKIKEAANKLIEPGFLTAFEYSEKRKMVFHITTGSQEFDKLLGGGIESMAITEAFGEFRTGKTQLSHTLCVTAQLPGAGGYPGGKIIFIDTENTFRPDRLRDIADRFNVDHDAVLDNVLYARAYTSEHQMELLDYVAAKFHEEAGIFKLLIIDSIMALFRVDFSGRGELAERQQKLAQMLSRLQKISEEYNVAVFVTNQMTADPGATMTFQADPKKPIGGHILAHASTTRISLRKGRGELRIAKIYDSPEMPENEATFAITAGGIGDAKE
Assay: pull-down

- binding result: binds
B1: human his-GST-TEV-BRCA2 F2s3 (aa 2379-2433), wild type (domain or fragment, UniProt P51587 2379-2433, looked up)
chain: GHPFYQVSATRNEKMRHLITTGRPTKVFVPPFKTKSHFHRVEQCVRNINLEENRQ
